Measurements taken from article PMC7055300 (2020).

B1: full-length E2F1, purified, recombinant (natural protein)
chain: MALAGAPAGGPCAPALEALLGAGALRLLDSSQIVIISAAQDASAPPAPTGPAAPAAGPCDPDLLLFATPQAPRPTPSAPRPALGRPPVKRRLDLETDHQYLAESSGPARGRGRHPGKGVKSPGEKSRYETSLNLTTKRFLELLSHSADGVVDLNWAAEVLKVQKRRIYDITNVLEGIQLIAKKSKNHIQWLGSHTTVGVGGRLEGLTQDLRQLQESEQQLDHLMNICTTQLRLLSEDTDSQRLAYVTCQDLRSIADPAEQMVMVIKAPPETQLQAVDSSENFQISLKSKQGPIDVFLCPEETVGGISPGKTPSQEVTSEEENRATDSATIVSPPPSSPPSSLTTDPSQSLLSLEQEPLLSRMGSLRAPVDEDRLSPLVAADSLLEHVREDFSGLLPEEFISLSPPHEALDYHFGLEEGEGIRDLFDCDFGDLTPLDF

Target: T1, human Retinoblastoma-1 (RB) pocket domain (human, UniProt P06400 373-771)
T1 chain: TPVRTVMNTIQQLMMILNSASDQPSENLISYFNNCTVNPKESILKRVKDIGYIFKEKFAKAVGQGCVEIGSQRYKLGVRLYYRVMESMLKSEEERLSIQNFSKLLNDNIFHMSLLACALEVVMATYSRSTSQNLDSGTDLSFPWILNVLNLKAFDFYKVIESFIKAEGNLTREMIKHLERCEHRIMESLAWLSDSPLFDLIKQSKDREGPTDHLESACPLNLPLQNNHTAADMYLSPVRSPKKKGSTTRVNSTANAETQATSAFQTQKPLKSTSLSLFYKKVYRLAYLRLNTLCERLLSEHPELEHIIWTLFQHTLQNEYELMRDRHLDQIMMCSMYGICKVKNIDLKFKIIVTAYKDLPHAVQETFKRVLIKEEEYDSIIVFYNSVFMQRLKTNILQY
Experiment: SPR

| Binder | Kd |
| --- | --- |
| B1 | 0.0331 µM |
| YIEEVFTPLVLKCKELK [LXCXE peptide derived from TpGcpE (TpMuguga_02g00667)] | 22.4 µM |
